Patent publication US20180214569A1 (Regeneron, published 2018)

Assays:
Assay in all cases: ELISA, plate coated with toxin component
[1] = target: S. aureus delta toxin (Staphylococcus aureus, UniProt P0C1V1 1-26)
Method: (§1) MaxiSorp microtiter plates were coated overnight with 10 μg/mL of individual F-components of S. aureus bicomponent toxins per well. Recombinant toxin components were either obtained from IBT BioServices (Gaithersburg, Md.) or generated by GenScript (Piscataway Township, N.J.). […] Wells were washed 3 times and then incubated with 100 ng/mL anti-human HRP secondary antibody per well for one hour at 25° C. 100 μL of SuperSignal ELISA Pico Chemiluminescent Substrate, (ThermoFisher Scientific) was added to the wells and signal was detected (Victor X3 plate reader, Perkin Elmer). Luminescence values were analyzed by a three-parameter logistic equation over an 11-point response curve (GraphPad Prism). Isotype-matched irrelevant control antibody and S. aureus delta toxin were included as controls.

[2] = target: T1, HlgB (GS) (Staphylococcus aureus, UniProt P0A077 26-325)
T1 sequence: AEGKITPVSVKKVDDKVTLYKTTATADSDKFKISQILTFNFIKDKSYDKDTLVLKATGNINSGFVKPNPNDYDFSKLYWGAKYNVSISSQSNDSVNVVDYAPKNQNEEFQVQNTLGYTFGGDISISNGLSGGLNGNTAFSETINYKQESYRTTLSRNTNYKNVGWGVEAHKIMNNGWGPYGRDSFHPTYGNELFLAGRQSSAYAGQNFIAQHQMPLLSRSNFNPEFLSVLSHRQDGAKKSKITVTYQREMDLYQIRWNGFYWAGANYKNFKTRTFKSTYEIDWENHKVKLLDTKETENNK
Method: as §1

[3] = target: T2, LukD (GS) (Staphylococcus aureus, UniProt O54082 27-327)
T2 sequence: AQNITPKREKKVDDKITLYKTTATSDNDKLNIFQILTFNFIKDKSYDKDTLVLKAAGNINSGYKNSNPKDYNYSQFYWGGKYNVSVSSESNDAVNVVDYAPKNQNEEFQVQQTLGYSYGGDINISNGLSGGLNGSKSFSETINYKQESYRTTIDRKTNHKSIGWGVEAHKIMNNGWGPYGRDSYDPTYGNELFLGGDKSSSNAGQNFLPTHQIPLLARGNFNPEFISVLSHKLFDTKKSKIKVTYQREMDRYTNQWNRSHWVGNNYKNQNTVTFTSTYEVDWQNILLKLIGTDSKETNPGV
Method: as §1

B1: H1H15375P (antibody, V domains shown)
VH: QVQLVESGGGGVQPGRSLRLSCEASGFTFSDYGMQWVRQAPGKGLEWVAVIWDDGRKKYYADSVKGRFTVSRDNSKNTLYLEINSLRVEDTAVYYCAREGSSSSGRYFLYGMDVWGQGTTVTVSS
VL: DIQMTQSPSSLSASVGDRVTITCRASQRISSYLNWYQQKLGKAPKLLISVASSLQSGVPSRFSGSGSGTDFTLTISSLQPEDFGIYYCQQSYNTPPWTFGQGTKVEIK
binding result [1]: no binding (tested: titration 50 uM-100 pM)

B2: H1H15399P (antibody, V domains shown)
VH: EVQLVESGGGLVQPGGSLRLSCAASGFTFSSSAMSWVRQAPGKGLEWVSTLNVGADSTFYAGSVRGRFTISRDNSKNTLFLQMNSLRAEDTAVYYCAKDWGGIPYYYYYYGMDVWGQGTTVTVSS
VL: DIQLTQSPSFLSASVGDRVTITCWASQGISSYLAWYQQKPGKAPNLLIYTASTLQSGVPSRFSGSGSGTEFTLTISSLQPEDFATYYCQQLNSYPLTFGGGTKVEIK
binding result [2]: no binding (tested: titration 50 uM-100 pM)
binding result [1]: no binding (tested: titration 50 uM-100 pM)
binding result [3]: no binding (tested: titration 50 uM-100 pM)

B3: H1H15378P (antibody, V domains shown)
VH: EVQLVESGGGLVQPGGSLRLSCAASGFTFNNYEMNWVRQAPGKGLEWVSFISSSGSTIDYAVSVKGRFTISRDNAKNSLYLQMNSLRPGDTAVYYCARARLDFYYYGMDVWGQGTTVTVSS
VL: DIQMTQSPSSLSASVGDRVTITCRASQGISNYLAWFQQKPGKAPKSLIYATSTLQSGVPSKFSGSGSGTDFTLTISSLQPEDFATYYCQQYNSFPLTFGGGTKVEIK
binding result [2]: no binding (tested: titration 50 uM-100 pM)
binding result [1]: no binding (tested: titration 50 uM-100 pM)
binding result [3]: no binding (tested: titration 50 uM-100 pM)

B4: H1H15379P (antibody, V domains shown)
VH: EVQLVESGGGLVQPGWSLRLSCAASGFTFDDYAMHWVRQAPGKGLEWVSGISWNSDDIDYTDSVKGRFTVSRDNAKNSLYLQMNSLRADDTAFYYCVRQRVRGYYYFGMDVWGQGTTVTVSS
VL: DIQMTQSPSSLSASVGDRVTITCRASQGISNYLAWFQQKPGKAPMSLIYAASSLQSGVPSKFSGSGSGTDFTLTISSLQPEDFATYYCQQYNSYPFTFGPGTKVDIK
binding result [2]: no binding (tested: titration 50 uM-100 pM)
binding result [1]: no binding (tested: titration 50 uM-100 pM)
binding result [3]: no binding (tested: titration 50 uM-100 pM)

B5: H1H15380P (antibody, V domains shown)
VH: QVQLQESGPGLVKPSETLSLMCTVSGGSINNYYWSWIRQPPGKGLEWIGYIYNGGITKYNPSLKSRVTISVDTSKSQISLKLNSVTAADTAFYYCTKEQLERREGHIWFDPWGQGTLVTVSS
VL: DIQMTQSPSSLSASVGDRVTITCRASQTINNYLNWYHQKPGKAPKLLIYGTSSLQSGVPSRFSGSGSGTEFALTISSLQPEDFATYYCQQSSSTPYTFGQGTKLEIK
binding result [2]: no binding (tested: titration 50 uM-100 pM)
binding result [1]: no binding (tested: titration 50 uM-100 pM)
binding result [3]: no binding (tested: titration 50 uM-100 pM)

B6: H1H15377P (antibody, V domains shown)
VH: EVQLVESGGGLVQPGGSLRLSCAASGFTFTSYEMNWVRQAPGKGLEWISYISSGGDTKYYADSVRGRFTISRDNAKNSLYLQMNSLRAEDTALYYCARDVLNWVFDYWGRGTLVTVSS
VL: DIQMTQSPSSLSASVGDRVTITCRASQSIGKYLNWYRQSPGKAPKLLIYATSSLQSGVPSSFSGSGSGTDFTLTISSLQPEDFATYYCQQGFRTPFTFGPGTKVDIK
binding result [2]: no binding (tested: titration 50 uM-100 pM)
binding result [1]: no binding (tested: titration 50 uM-100 pM)
binding result [3]: no binding (tested: titration 50 uM-100 pM)
